Data on one molecule can be found in patent US20040115738A1 (INNATE PHARMA, published 2004).

For one assay, the target named is T1, DAP12 (UniProt O43914 22-113).
T1 construct: Endogenous protein in NK cell lysates
In words: co-immunoprecipitation (data not shown).

A further assay addresses T2, FcεRIγ (UniProt P30273 19-86).
T2 construct: Endogenous protein in NK cell lysates; also called FcεFRIγ (as misprinted)
T2 sequence (looked up): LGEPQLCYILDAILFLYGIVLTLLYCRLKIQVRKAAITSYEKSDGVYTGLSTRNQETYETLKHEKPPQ
Put plainly: co-immunoprecipitation (data not shown).

T1 sequence (O43914 22-113 limits assumed): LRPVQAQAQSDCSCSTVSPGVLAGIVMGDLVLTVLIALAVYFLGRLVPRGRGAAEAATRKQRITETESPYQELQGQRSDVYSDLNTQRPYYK

B1: NKp80 (receptor)
chain: MQDEERYMTLNVQSKKRSSAQTSCLTFKDYSVTLHWYKILLGISGTVNGILTLTLISLILLVSCGVLLKCQKGSCSNATQYEDTGDLKVNNGTRRNISNKDLCASRSADQTVLCQSEWLKYQGKCYWFSNEMKSWSDSYVYCLERKSHLLIIHDQLEMAFIQKNLRQLNYVWIGLNFTSLKMTWTWVDGSPIDSKIFFIKGPAKENSCAAIKESKIFSETCSSVFKWICQY
notes: 231 aa type II transmembrane protein; On the NK cell surface it is a dimer (80 kD non-reduced, about 40 kD reduced); Tested on human NK cells, in lysates of 125I-labeled NK cells, and on 293T cells transfected with VR1012-ML; also called MA152-reactive molecule; MA152 mAb-reactive molecule
As to B1, the binding result with DAP12 and with FcεRIγ was “no binding” throughout.
